The record followed here is PMC8298264, “Function of cofactor Akirin2 in the regulation of gene expression in model human neutrophil-like HL60 cells” (Bioscience Reports, 2021).

This test relates to human HL60 cells. As to the kind of experiment: SWATH-MS proteomics, differential protein representation, akirin2 KO vs WT HL60 cells. In kind it is cell-based. To be noted: akirin2 KO vs WT HL60 cells; sheet "Under-represented in KO". In short, it runs like this:
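First, proteins from wild-type and knockout cells are digested with trypsin by FASP. Next, pooled IDA runs generate a reference ion library. Then six samples of 5 µg each are acquired by data-independent SWATH, and protein areas are normalized to the summed area of all detected proteins.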

B1: sp¦P55060¦XPO2_HUMAN (protein, UniProt P55060 1-971, looked up)
Exportin-2: MELSDANLQTLTEYLKKTLDPDPAIRRPAEKFLESVEGNQNYPLLLLTLLEKSQDNVIKVCASVTFKNYIKRNWRIVEDEPNKICEADRVAIKANIVHLMLSSPEQIQKQLSDAISIIGREDFPQKWPDLLTEMVNRFQSGDFHVINGVLRTAHSLFKRYRHEFKSNELWTEIKLVLDAFALPLTNLFKATIELCSTHANDASALRILFSSLILISKLFYSLNFQDLPEFFEDNMETWMNNFHTLLTLDNKLLQTDDEEEAGLLELLKSQICDNAALYAQKYDEEFQRYLPRFVTAIWNLLVTTGQEVKYDLLVSNAIQFLASVCERPHYKNLFEDQNTLTSICEKVIVPNMEFRAADEEAFEDNSEEYIRRDLEGSDIDTRRRAACDLVRGLCKFFEGPVTGIFSGYVNSMLQEYAKNPSVNWKHKDAAIYLVTSLASKAQTQKHGITQANELVNLTEFFVNHILPDLKSANVNEFPVLKADGIKYIMIFRNQVPKEHLLVSIPLLINHLQAESIVVHTYAAHALERLFTMRGPNNATLFTAAEIAPFVEILLTNLFKALTLPGSSENEYIMKAIMRSFSLLQEAIIPYIPTLITQLTQKLLAVSKNPSKPHFNHYMFEAICLSIRITCKANPAAVVNFEEALFLVFTEILQNDVQEFIPYVFQVMSLLLETHKNDIPSSYMALFPHLLQPVLWERTGNIPALVRLLQAFLERGSNTIASAAADKIPGLLGVFQKLIASKANDHQGFYLLNSIIEHMPPESVDQYRKQIFILLFQRLQNSKTTKFIKSFLVFINLYCIKYGALALQEIFDGIQPKMFGMVLEKIIIPEIQKVSGNVEKKICAVGITKLLTECPPMMDTEYTKLWTPLLQSLIGLFELPEDDTIPDEEHFIDIEDTPGYQTAFSQLAFAGKKEHDPVGQMVNNPKIHLAQSLHKLSTACPGRVPSMVSTSLNAEALQYLQGYLQAASVTLL
With B1, the “Fold Change” value came out at 0.6591 and the “Log (Fold Change)” value was -0.1811.

B2: sp¦Q8TEX9¦IPO4_HUMAN (protein, UniProt Q8TEX9 1-1081, looked up)
Importin-4: MESAGLEQLLRELLLPDTERIRRATEQLQIVLRAPAALPALCDLLASAADPQIRQFAAVLTRRRLNTRWRRLAAEQRESLKSLILTALQRETEHCVSLSLAQLSATIFRKEGLEAWPQLLQLLQHSTHSPHSPEREMGLLLLSVVVTSRPEAFQPHHRELLRLLNETLGEVGSPGLLFYSLRTLTTMAPYLSTEDVPLARMLVPKLIMAMQTLIPIDEAKACEALEALDELLESEVPVITPYLSEVLTFCLEVARNVALGNAIRIRILCCLTFLVKVKSKALLKNRLLPPLLHTLFPIVAAEPPPGQLDPEDQDSEEEELEIELMGETPKHFAVQVVDMLALHLPPEKLCPQLMPMLEEALRSESPYQRKAGLLVLAVLSDGAGDHIRQRLLPPLLQIVCKGLEDPSQVVRNAALFALGQFSENLQPHISSYSREVMPLLLAYLKSVPLGHTHHLAKACYALENFVENLGPKVQPYLPELMECMLQLLRNPSSPRAKELAVSALGAIATAAQASLLPYFPAIMEHLREFLLTGREDLQPVQIQSLETLGVLARAVGEPMRPLAEECCQLGLGLCDQVDDPDLRRCTYSLFAALSGLMGEGLAPHLEQITTLMLLSLRSTEGIVPQYDGSSSFLLFDDESDGEEEEELMDEDVEEEDDSEISGYSVENAFFDEKEDTCAAVGEISVNTSVAFLPYMESVFEEVFKLLECPHLNVRKAAHEALGQFCCALHKACQSCPSEPNTAALQAALARVVPSYMQAVNRERERQVVMAVLEALTGVLRSCGTLTLKPPGRLAELCGVLKAVLQRKTACQDTDEEEEEEDDDQAEYDAMLLEHAGEAIPALAAAAGGDSFAPFFAGFLPLLVCKTKQGCTVAEKSFAVGTLAETIQGLGAASAQFVSRLLPVLLSTAQEADPEVRSNAIFGMGVLAEHGGHPAQEHFPKLLGLLFPLLARERHDRVRDNICGALARLLMASPTRKPEPQVLAALLHALPLKEDLEEWVTIGRLFSFLYQSSPDQVIDVAPELLRICSLILADNKIPPDTKAALLLLLTFLAKQHTDSFQAALGSLPVDKAQELQAVLGLS
Turning to B2, the “Fold Change” value is on record as 0.285 and the “Log (Fold Change)” value is given as -0.5451.
